# Results: patent US20220233706A1 (ANTIKOR BIOPHARMA, published 2022)
# Key:
# HER2-Fc = biological target: T1, HER2-Fc (UniProt P04626 23-652); assay: ELISA, plates coated with 10 µg/ml HER2-Fc, anti-myc IgG detection
# T1 construct: Coated at 10 µg/ml on ELISA plates; also called HER2 antigen; immobilised HER2 target antigen (ELISA); not shown: Fc part
# [1] = biological target: T2, HER2 immobilised on a Biacore chip (UniProt P04626 23-652, limits assumed); assay: Biacore SPR, HER2 amine-coupled to the chip
# T2 construct: also called immobilised HER2 target antigen (Biacore SPR); HER2 chip
# [2] = biological target: T2, HER2 immobilised on a Biacore chip; assay: Biacore SPR, HER2 amine-coupled to the chip; Acetate conjugate, DAR 16
# Procedure: (§1) A standard amine-coupling method was used to prepare all Biacore surfaces (CM5 or CM3), as follows. Flow cells were activated individually by injecting a freshly mixed solution of 0.2M EDC in 0.05 M NHS at 30 μl/min. […] Excess NHS ester was deactivated using a 1 M ethanolamine solution. […] The dissociation time was extended to 3600 s for the highest concentration. Surfaces were regenerated with 45 s injection of MgCl₂ […].
# [3] = biological target: T2, HER2 immobilised on a Biacore chip; assay: Biacore SPR, HER2 amine-coupled to the chip; MMAF-C5 conjugate, DAR 7.1
# Procedure: as §1
# [4] = biological target: T2, HER2 immobilised on a Biacore chip; assay: Biacore SPR, HER2 amine-coupled to the chip; MMAF-C5 conjugate, DAR 5.2
# Procedure: as §1
# [5] = biological target: T2, HER2 immobilised on a Biacore chip; assay: Biacore SPR, HER2 amine-coupled to the chip; Auristatin-F-C5 conjugate, DAR 3.3
# Procedure: as §1
molecule,measurement,setting,value
"C6.5 scFv, non-SPDP modified but reduced control",Kd,HER2-Fc,42 nM
"C6.5 scFv-SPDP conjugate, linker to antibody ratio 5.4, reduced with TCEP",Kd,HER2-Fc,24.9 nM
"scFv (TCT1067)-Acetate DAR 16 (scFv, acetyl groups (from Acetate-NHS) on lysines, N-terminal amine and further residues, 16 additions by LC-MS, also called TCT1067-acetate conjugate 2) scFv: SGSGGSGQVQLVQSGAEVKKPGESLKISCKGSGYSFTSYWIAWVRQMPGKGLEYMGLIYPGDSDTKYSPSFQGQVTISVDKSVSTAYLQWSSLKPSDSAVYFCARHDVGYCTDRTCAAWPEWLGVWGQGTLVTVSSGGGGSGGGGSGGGGSQSVLTQPPSVSAAPGQKVTISCSGSSSNIGNNYVSWYQQLPGTAPKLLIYGHTNRPAGVPDRFSGSKSGTSASLAISGFRSEDEADYYCASWDYTLSGWVFGGGTKLTVLMASMTGGQQMG",koff,[1],7.64e-05 s⁻¹
same,kon,[1],3.63e+06 M⁻¹ s⁻¹
same,Kd,[2],0.021 nM
"scFv (TCT1067)-MMAF-C5 ADC 2 (DAR 7.1) (scFv, MMAF-C5 on lysine residues; DAR 8.6 by AAA, 5.5 by MS, average 7.1, also called scFv (TCT1067)-MMAF DAR 8.7) scFv: SGSGGSGQVQLVQSGAEVKKPGESLKISCKGSGYSFTSYWIAWVRQMPGKGLEYMGLIYPGDSDTKYSPSFQGQVTISVDKSVSTAYLQWSSLKPSDSAVYFCARHDVGYCTDRTCAAWPEWLGVWGQGTLVTVSSGGGGSGGGGSGGGGSQSVLTQPPSVSAAPGQKVTISCSGSSSNIGNNYVSWYQQLPGTAPKLLIYGHTNRPAGVPDRFSGSKSGTSASLAISGFRSEDEADYYCASWDYTLSGWVFGGGTKLTVLMASMTGGQQMG",Kd,[3],0.0038 nM
same,koff,[3],1.7e-05 s⁻¹
same,kon,[3],4.6e+06 M⁻¹ s⁻¹
"scFv (TCT1067)-P5-C5 DAR 10.9 (scFv, P5-C5 on lysine residues; DAR 10.4 by AAA, 11.7 by MS, overall average 10.9, also called TCT1067-P5C5 ADC 1; compound 71) scFv: SGSGGSGQVQLVQSGAEVKKPGESLKISCKGSGYSFTSYWIAWVRQMPGKGLEYMGLIYPGDSDTKYSPSFQGQVTISVDKSVSTAYLQWSSLKPSDSAVYFCARHDVGYCTDRTCAAWPEWLGVWGQGTLVTVSSGGGGSGGGGSGGGGSQSVLTQPPSVSAAPGQKVTISCSGSSSNIGNNYVSWYQQLPGTAPKLLIYGHTNRPAGVPDRFSGSKSGTSASLAISGFRSEDEADYYCASWDYTLSGWVFGGGTKLTVLMASMTGGQQMG",Kd,[1],0.302 nM
same,koff,[1],7.13e-05 s⁻¹
same,kon,[1],236000 M⁻¹ s⁻¹
"scFv (TCT1067)-MMAF-C5 ADC 1 (DAR 5.2) (scFv, MMAF-C5 on lysine residues; DAR 6.4 by AAA, 4.0 by MS, average 5.2, also called scFv (TCT1067)-MMAF-C5 DAR 5.2; scFv (TCT1067)-MMAF-C5, DAR 6.4) scFv: SGSGGSGQVQLVQSGAEVKKPGESLKISCKGSGYSFTSYWIAWVRQMPGKGLEYMGLIYPGDSDTKYSPSFQGQVTISVDKSVSTAYLQWSSLKPSDSAVYFCARHDVGYCTDRTCAAWPEWLGVWGQGTLVTVSSGGGGSGGGGSGGGGSQSVLTQPPSVSAAPGQKVTISCSGSSSNIGNNYVSWYQQLPGTAPKLLIYGHTNRPAGVPDRFSGSKSGTSASLAISGFRSEDEADYYCASWDYTLSGWVFGGGTKLTVLMASMTGGQQMG",Kd,[4],0.0196 nM
same,koff,[4],3.4e-05 s⁻¹
same,kon,[4],1.8e+06 M⁻¹ s⁻¹
"scFv (TCT1067)-Auristatin-F-C5 DAR 3.3 (scFv, Auristatin F-C5 on lysine residues; DAR 3.64 by AAA, 2.9 by MS, average 3.3, also called TCT1067-AF-C5 ADC 1) scFv: SGSGGSGQVQLVQSGAEVKKPGESLKISCKGSGYSFTSYWIAWVRQMPGKGLEYMGLIYPGDSDTKYSPSFQGQVTISVDKSVSTAYLQWSSLKPSDSAVYFCARHDVGYCTDRTCAAWPEWLGVWGQGTLVTVSSGGGGSGGGGSGGGGSQSVLTQPPSVSAAPGQKVTISCSGSSSNIGNNYVSWYQQLPGTAPKLLIYGHTNRPAGVPDRFSGSKSGTSASLAISGFRSEDEADYYCASWDYTLSGWVFGGGTKLTVLMASMTGGQQMG",Kd,[5],0.0328 nM
same,koff,[1],1.82e-05 s⁻¹
same,kon,[1],556000 M⁻¹ s⁻¹
